This note sets out measurements from patent publication US20240124565A1 (DIADEM S R L, published 2024).

The target in this test is T1, peptide CRTEEENLRKKGEPHH (SEQ ID NO: 2) conjugated with BSA (human, also: conjugated with BSA by the glutaraldehyde method).
T1 construct: 16-residue immunogen derived from human p53 282-297, with Cys in place of the first Arg; ELISA plates were coated with 'the antigen'; also called the antigen; peptide used as antigen
T1 peptide: CRTEEENLRKKGEPHH
Briefly: ELISA, plate coated with the antigen, hybridoma supernatant dilutions. As to the method:
The animals' splenocytes were fused with mouse myeloma cells (SP2/O cell line). The fusion products were subjected to screening against the antigen to select the antibody-producing clones. The growth of these clones was continued. This first screening was performed by ELISA methodology. The positive clones were labeled as “parental clones” and frozen after 3 passages. An antigen coating was created onto ELISA plates, and successively the fusion product supernatant was added. The serum of the immunized animals was used as a positive control in ELISA (Example 2).
After the fusion between the splenocytes of the mouse with the best antibody titer and mouse myeloma cells, an ELISA assay was performed to evaluate the fusion products. A coating with the antigen was created in a 96-well ELISA plate and serial dilutions of the supernatant from various clones were added to each well to evaluate their antibody production by spectrophotometric reading. The clones with the highest optical density at 450 nm (OD₄₅₀ₙₘ) were transferred to 24-well plates and after their growth the ELISA assay was repeated, the clones with the highest antibody production were transferred to 6-well plates, grown and tested again by ELISA. The procedure was repeated also for the clones transferred to culture flasks.
(In general: In an ELISA, binding on a coated surface is turned into a signal by an enzyme label.)

Where no end group is shown, it is not given here.

B1: 2D3A8 antibody (antibody)
heavy: EVQLQQSGPELVKPGASVKMSCKASGYTFTSYVMHWVKQKPGQGLEWIGYINPYNDGTKYNEKFKGKATLTSDKSSSTAYMELSSLTSEDSAVYYCARGGYYAMDYWGQGTSVTVSSESQSFPNVFPLVSCESPLSDKNLVAMGCLARDFLPSTISFTWNYQNNTEVIQGIRTFPTLRTGGKYLATSQVLLSPKSILEGSDEYLVCKIHYGGKNRDLHVPIPAVAEMNPNVNVFVPPRDGFSGPAPRKSKLICEATNFTPKPITVSWLKDGKLVESGFTTDPVTIENKGSTPQTYKVISTLTISEIDWLNLNVYTCRVDHRGLTFLKNVSSTCAASPSTDILTFTIPPSFADIFLSKSANLTCLVSNLATYETLNISWASQSGEPLETKIKIMESHPNGTFSAKGVASVCVEDWNNRKEFVCTVTHRDLPSPQKKFISKPNEVHKHPPAVYLLPPAREQLNLRESATVTCLVKGFSPADISVQWLQRGQLLPQEKYVTSAPMPEPGAPGFYFTHSILTVTEEEWNSGETYTCVVGHEALPHLVTERTVDKSTGKPTLYNVSLIMSDTGGTCY
light: DIQMTQTTSSLSASLGDRVTISCRASQDISNYLNWYQQKPDGTVKLLIYYTSRLHSGVPSRFSGSGSGTDYSLTISNLEQEDIATYFCQQGNTLPYTFGGGTKLEIKRADAAPTVSIFPPSSEQLTSGGASVVCFLNNFYPKDINVKWKIDGSERQNGVLNSWTDQDSKDSTYSMSSTLTLTKDEYERHNSYTCEATHKTSTSPIVKSFNRNEC
notes: Mouse monoclonal from a hybridoma, purified from the clone's supernatant; also called clone 2D3A8
With B1, the binding result is on record as “binds”.
